# Values quoted from earlier work in PMC9200754.
# Experiments:
# [1] = biological target: p65 (Homo sapiens) (UniProt Q04206); settings: cited from earlier work
# [2] = biological target: p50 (Homo sapiens) (UniProt P19838); settings: cited from earlier work
# Sequence of UniProt Q04206 (Q04206 whole entry): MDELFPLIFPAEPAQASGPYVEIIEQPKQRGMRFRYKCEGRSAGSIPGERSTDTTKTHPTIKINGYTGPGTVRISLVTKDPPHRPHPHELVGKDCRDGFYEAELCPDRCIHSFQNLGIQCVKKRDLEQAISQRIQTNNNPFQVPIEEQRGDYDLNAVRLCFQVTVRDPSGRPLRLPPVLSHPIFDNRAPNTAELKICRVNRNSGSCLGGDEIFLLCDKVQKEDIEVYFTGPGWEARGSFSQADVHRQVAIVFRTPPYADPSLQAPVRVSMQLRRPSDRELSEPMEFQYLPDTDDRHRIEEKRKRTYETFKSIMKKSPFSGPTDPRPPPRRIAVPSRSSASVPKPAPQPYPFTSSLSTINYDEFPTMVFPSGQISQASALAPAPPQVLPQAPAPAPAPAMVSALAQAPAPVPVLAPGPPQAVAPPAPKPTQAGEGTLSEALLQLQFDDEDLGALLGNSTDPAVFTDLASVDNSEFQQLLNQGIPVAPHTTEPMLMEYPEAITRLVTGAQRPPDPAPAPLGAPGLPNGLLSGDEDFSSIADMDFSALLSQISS
substance,measurement,setting,value
p50 (from UniProt P19838),Kd,[1],10 nM
same,Kd,[2],30 nM
